The labels stand for the following.
B1: mAb 2.56: fully human IgG4 kappa anti-TIM-1 monoclonal antibody; heavy chain SEQ ID NO: 30, light chain SEQ ID NO: 32 (antibody, listed as Homo Sapiens)
heavy: QVQLVESGGGVVQPGRSLRLSCAASGFTFSSYGMHWVRQAPGKGLEWVAVIWYDGSHKYYADSVKGRFTISRDNSKNTLYLQMNSLRAEDTAVYYSARDYYDTSRHHWGFDCWGQGTLVTVSSA
light: EIVMTQTPLSLPVTPGEPASISCRSSQSLLDSEDGNTYLDWYLQKPGQSPQLLIYTLSHRASGVPDRFSGSGSGTDFTLKISRVEAEDVGVYCCMQRVEFPITFGQGTRLEIKR
B2: mAb 2.54: fully human IgG4 kappa anti-TIM-1 monoclonal antibody; heavy chain SEQ ID NO: 26, light chain SEQ ID NO: 28 (antibody, listed as Homo Sapiens, V domains shown)
VH: QVQLEQSGGGVVQPGRSLRLSCAASGFTFTNYGLHWVRQAPGKGLDWVAVIWYDGSHKFYADSVKGRFTISRDNSKNTLFLQMNSLRAEDTAVYYCTRDLDYWGQGTLVTVSSA
VL: ETQLTQSPGTLSLSPGERVTLSCRASQSVSNNYLAWYQQKPGQAPRLLIYGASSRATGIPDRFSGSGSGTDFTLTISRLEPEDCAECYCQQYGSSLPLTFGGGTKVEIKR
B3: mAb 2.61: fully human IgG4 kappa anti-TIM-1 monoclonal antibody; heavy chain SEQ ID NO: 38, light chain SEQ ID NO: 40 (antibody, listed as Homo Sapiens, V domains shown)
VH: B1 heavy with S7A, S30R, E46K, H57N, A61T, S96C, A97V, T103N, C112Y
VL: DIQMTQSPSSRCASVGDRVTITCRASQGIRNDLAWYQQKPGKAPKRLIYAASSLQSGVPSRFSGSRSGTEFTLTISSLQPEDFAAYYCLQHNSYPPSFGQGTKLEIKR
B4: mAb 2.59: fully human IgG4 kappa anti-TIM-1 monoclonal antibody; heavy chain SEQ ID NO: 34, light chain SEQ ID NO: 36 (antibody, listed as Homo Sapiens, V domains shown)
VH: NNNNNQSGPRLVKPSQTLSLTCTVSGGSISSDGYYWSWIRQHPGKGLEWIGYIYYSGSTFYNPSLKSRVAISVDTSKNQFSLKLSSVTAADTAVYYCARESPHSSNWYSGFDCWGQGTLVTVSSA
VL: NNNNTQSPDFQSVTPKEKVTITCRASQSIGSRLHWYQQKPDQSPKLLIKYASQSFSGVPSRFSGSGSGTDFTLTINSLEAEDAATYYCHQSSNLPFTFGPGTKVDIKR
B5: mAb 2.76: fully human IgG4 kappa anti-TIM-1 monoclonal antibody; heavy chain SEQ ID NO: 46, light chain SEQ ID NO: 48 (antibody, listed as Homo Sapiens, V domains shown)
VH: NNNNEQSGGGVVQPGRSLRLSCAASGFTFSSYGMYWVRQAPGKGLEWVAVIWYDGSNKYYADSVKGRFTISRDNSKNTLYLQMNSLRAEDTAVYYCARDFYDSSRYHYGMDVWGQGTTVTVSSA
VL: B1 light with E1N, I2N, V3N, M4N, T7C, E33D, L57V, H59Y, C93Y, V98I
B6: mAb 2.70: fully human IgG4 kappa anti-TIM-1 monoclonal antibody; heavy chain SEQ ID NO: 42, light chain SEQ ID NO: 44 (antibody, listed as Homo Sapiens, V domains shown)
VH: B1 heavy with T28I, S31R, E46K, H57N, Y59L, S96C, T103N, C112Y
VL: B1 light with E1D, Q27R, E33D, H59Y, C93Y
B7: mAb 1.37: fully human IgG2 kappa anti-TIM-1 monoclonal antibody; heavy chain SEQ ID NO: 6, light chain SEQ ID NO: 8 (antibody, listed as Homo Sapiens, V domains shown)
VH: EVQLVESGGGLVQPGGSLRLSCAASGFTFTNYWMSWVRQAPGKGLEWVANIQQDGSEKYYVDSVRGRFTISRDNAKNSLYLQMNSLRAEDSAVYYCARWDYWGQGTLVTVSSA
VL: DIVMTQTPLSSTVILGQPASISCRSSQSLVHSDGNTYLNWLQQRPGQPPRLLIYMISNRFSGVPDRFSGSGAGTDFTLKISRVEAEDVGVYYCMQATESPQTFGQGTKVEIKR

Residue numbers refer to the chain shown, from its start.

The first assay has as its target T1, TIM-1 antigen (Homo sapiens, UniProt Q96D42, DEL158-162/L179P).
T1 construct: V5; His; made in house; host or cells: baculovirus expression system (pMelV5His vector / pBlueBac)
T1 sequence (Q96D42 with tags, fused parts or gaps DEL158-162/L179P): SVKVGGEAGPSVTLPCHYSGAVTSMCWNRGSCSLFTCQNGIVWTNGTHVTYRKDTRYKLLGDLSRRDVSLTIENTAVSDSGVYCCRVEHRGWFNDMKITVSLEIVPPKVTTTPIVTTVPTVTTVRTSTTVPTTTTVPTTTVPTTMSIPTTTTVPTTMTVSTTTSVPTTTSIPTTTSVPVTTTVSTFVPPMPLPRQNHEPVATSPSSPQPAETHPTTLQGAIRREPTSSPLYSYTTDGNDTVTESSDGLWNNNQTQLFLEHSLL
The assay can be described thus: BiaCore affinity determination of anti-TIM-1 mAb. Particulars: 25° C.; mAb captured on chip; TIM-1 antigen injected at 292 nM. In kind it is binding. The procedure: BiaCore® analysis was used to determine binding affinity of anti-TIM-1 antibody to TIM-1 antigen. The analysis was performed at 25° C. using a BiaCore® 2000 biosensor equipped with a research-grade CMS sensor chip. A high-density goat […] antibody surface over a CMS BiaCore® chip was prepared using routine amine coupling. Antibody supernatants were diluted to ˜5 μg/mL in HBS-P running buffer containing 100 μg/mL BSA and 10 mg/mL carboxymethyldextran. The antibodies were then captured individually on a separate surface using a 2 minute contact time, and a 5 minute wash for stabilization of antibody baseline.
TIM-1 antigen was injected at 292 nM over each surface for 75 seconds, followed by a 3-minute dissociation. Double-referenced binding data were obtained by subtracting the signal from a control flow cell and subtracting the baseline drift of a buffer inject just prior to the TIM-1 injection. TIM-1 binding data for each mAb were normalized for the amount of mAb captured on each surface. The normalized, drift-corrected responses were also measured.
A word on the Kd: it is the concentration at which binding is half-saturated. A higher Kd goes with weaker binding. As for B1, the Kd is 1.1 nM. In other words, the single-digit nanomolar range. The same measure, in the same setting: the same measure for B2: 3.35 nM.

The target in another assay is T1, TIM-1 antigen. The assay can be described thus: Epitope binning (antigen binding competition, Luminex). Particulars: Table 9. On the procedure: Certain antibodies, described herein were “binned” in accordance with the protocol described in U.S. Patent Application Publication No. 20030157730, published on Aug. 21, 2003, entitled “Antibody Categorization Based on Binding Characteristics.”
MxhIgG conjugated beads were prepared for coupling to primary antibody. The volume of supernatant needed was calculated using the following formula: (n+10)×50 μL (where n=total number of samples on plate). Where the concentration was known, 0.5 μg/mL was used. Bead stock was gently vortexed, then diluted in supernatant to a concentration of 2500 of each bead per well or 0.5×10^5/mL and incubated on a shaker in the dark at room temperature overnight, or 2 hours if at a known concentration of 0.5 μg/mL. Following aspiration, 50 μL of each bead was added to each well of a filter plate, then washed once by adding 100 μL/well wash buffer and aspirating. Antigen and controls were added to the filter plate 50 μL/well then covered and allowed to incubate in the dark for 1 hour on shaker. Following a wash step, a secondary unknown antibody was added at 50 μL/well using the same dilution (or concentration if known) as used for the primary antibody. The plates were then incubated in the dark for 2 hours at room temperature on shaker followed by a wash step. Next, 50 μL/well biotinylated mxhIgG diluted 1:500 was added and allowed to incubate in the dark for 1 hour on shaker at room temperature. Following a wash step, 50 μL/well Streptavidin-PE was added at 1:1000 and allowed to incubate in the dark for 15 minutes on shaker at room temperature. Following a wash step, each well was resuspended in 80 μL blocking buffer and read using a Luminex system.
B3 gave a Bin of 4. Same read-out and setting: the same measure for B4: 1; for B5: 4; for B1: 5. Consider B6, for which the Bin was 6. The same measure, in the same setting: the same measure for B7: 4; for B2: 7.

The values are drawn from patent US20170267750A1, “Method of Treating Ovarian and Renal Cancer Using Antibodies Against T Cell Immunoglobulin Domain and Mucin Domain 1 (TIM-1) Antigen” (Celldex Therapeutics, Inc., priority 2005, published 2017).
